Reference: the Human Domainome abundance scans (Beltran et al. 2025)
± gives the uncertainty stated by the source.

B1: Nuclear receptor subfamily 1 group D member 2, residues 103 to 171; numbered along this chain, Q14995 (parent)
chain: CKVCGDVASGFHYGVHACEGCKGFFRRSIQQNIQYKKCLKNENCSIMRMNRNRCQQCRFKKCLSVGMSR

Variants of: B1
Assay: abundance fitness (aPCA) (normalised: wild type 0, dead -1); higher = more abundant; growth selection in yeast, the domain comes from the species named
Conditions: Homo sapiens

| Variant | abundance fitness |
| --- | --- |
| CKVCGDVASGFHYGVHACEGCKGFFRRSIQQNIQYKKSLKNENCSIMRMNRNRCQQCRFKKCLSVGMSR | -0.579 ± 0.075 |
| CKVCGDVASGFHYGVHACEGCKGFFRRSIQQNIQYKKPLKNENCSIMRMNRNRCQQCRFKKCLSVGMSR | -0.682 ± 0.35 |
| CKVCGDVASGFHYGVHACEGCKGFFRRSIQQNIQYKKYLKNENCSIMRMNRNRCQQCRFKKCLSVGMSR | -0.785 ± 0.44 |
| CKVCGDVASGFHYGVHACEGCKGFFRRSIQQNIQYKKELKNENCSIMRMNRNRCQQCRFKKCLSVGMSR | -0.857 ± 0.27 |
| CKVCGDVASGFHYGVHACEGCKGFFRRSIQQNIQYKKTLKNENCSIMRMNRNRCQQCRFKKCLSVGMSR | -0.768 ± 0.26 |
| CKVCGDVASGFHYGVHACEGCKGFFRRSIQQNIQYKKALKNENCSIMRMNRNRCQQCRFKKCLSVGMSR | -0.74 ± 0.26 |
| CKVCGDVASGFHYGVHACEGCKGFFRRSIQQNIQYKKCWKNENCSIMRMNRNRCQQCRFKKCLSVGMSR | -0.559 ± 0.18 |
| CKVCGDVASGFHYGVHACEGCKGFFRRSIQQNIQYKKCPKNENCSIMRMNRNRCQQCRFKKCLSVGMSR | -0.106 ± 0.11 |
| CKVCGDVASGFHYGVHACEGCKGFFRRSIQQNIQYKKCQKNENCSIMRMNRNRCQQCRFKKCLSVGMSR | -0.068 ± 0.15 |
| CKVCGDVASGFHYGVHACEGCKGFFRRSIQQNIQYKKCIKNENCSIMRMNRNRCQQCRFKKCLSVGMSR | 0.161 ± 0.2 |
| CKVCGDVASGFHYGVHACEGCKGFFRRSIQQNIQYKKCAKNENCSIMRMNRNRCQQCRFKKCLSVGMSR | 0.084 ± 0.075 |
| CKVCGDVASGFHYGVHACEGCKGFFRRSIQQNIQYKKCEKNENCSIMRMNRNRCQQCRFKKCLSVGMSR | 0.262 ± 0.13 |
| CKVCGDVASGFHYGVHACEGCKGFFRRSIQQNIQYKKCNKNENCSIMRMNRNRCQQCRFKKCLSVGMSR | 0.018 ± 0.13 |
| CKVCGDVASGFHYGVHACEGCKGFFRRSIQQNIQYKKCSKNENCSIMRMNRNRCQQCRFKKCLSVGMSR | 0.165 ± 0.082 |
| CKVCGDVASGFHYGVHACEGCKGFFRRSIQQNIQYKKCFKNENCSIMRMNRNRCQQCRFKKCLSVGMSR | -0.57 ± 0.24 |
| CKVCGDVASGFHYGVHACEGCKGFFRRSIQQNIQYKKCGKNENCSIMRMNRNRCQQCRFKKCLSVGMSR | -0.163 ± 0.063 |
| CKVCGDVASGFHYGVHACEGCKGFFRRSIQQNIQYKKCKKNENCSIMRMNRNRCQQCRFKKCLSVGMSR | -0.128 ± 0.18 |
| CKVCGDVASGFHYGVHACEGCKGFFRRSIQQNIQYKKCHKNENCSIMRMNRNRCQQCRFKKCLSVGMSR | -0.167 ± 0.17 |
| CKVCGDVASGFHYGVHACEGCKGFFRRSIQQNIQYKKCDKNENCSIMRMNRNRCQQCRFKKCLSVGMSR | 0.321 ± 0.12 |
| CKVCGDVASGFHYGVHACEGCKGFFRRSIQQNIQYKKCTKNENCSIMRMNRNRCQQCRFKKCLSVGMSR | -0.121 ± 0.16 |

| Variant | abundance fitness |
| --- | --- |
| CKVCGDVASGFHYGVHACEGCKGFFRRSIQQNIQYKKCMKNENCSIMRMNRNRCQQCRFKKCLSVGMSR | 0.1 ± 0.14 |
| CKVCGDVASGFHYGVHACEGCKGFFRRSIQQNIQYKKCYKNENCSIMRMNRNRCQQCRFKKCLSVGMSR | -0.02 ± 0.16 |
| CKVCGDVASGFHYGVHACEGCKGFFRRSIQQNIQYKICLKNENCSIMRMNRNRCQQCRFKKCLSVGMSR | -0.279 ± 0.14 |
| CKVCGDVASGFHYGVHACEGCKGFFRRSIQQNIQYKPCLKNENCSIMRMNRNRCQQCRFKKCLSVGMSR | 0.27 ± 0.081 |
| CKVCGDVASGFHYGVHACEGCKGFFRRSIQQNIQYKVCLKNENCSIMRMNRNRCQQCRFKKCLSVGMSR | -0.387 ± 0.099 |
| CKVCGDVASGFHYGVHACEGCKGFFRRSIQQNIQYKECLKNENCSIMRMNRNRCQQCRFKKCLSVGMSR | -0.04 ± 0.1 |
| CKVCGDVASGFHYGVHACEGCKGFFRRSIQQNIQYKQCLKNENCSIMRMNRNRCQQCRFKKCLSVGMSR | -0.075 ± 0.12 |
| CKVCGDVASGFHYGVHACEGCKGFFRRSIQQNIQYKSCLKNENCSIMRMNRNRCQQCRFKKCLSVGMSR | 0.011 ± 0.07 |
| CKVCGDVASGFHYGVHACEGCKGFFRRSIQQNIQYKMCLKNENCSIMRMNRNRCQQCRFKKCLSVGMSR | 0.279 ± 0.17 |
| CKVCGDVASGFHYGVHACEGCKGFFRRSIQQNIQYKRCLKNENCSIMRMNRNRCQQCRFKKCLSVGMSR | -0.391 ± 0.1 |
| CKVCGDVASGFHYGVHACEGCKGFFRRSIQQNIQYKCCLKNENCSIMRMNRNRCQQCRFKKCLSVGMSR | -0.495 ± 0.18 |
| CKVCGDVASGFHYGVHACEGCKGFFRRSIQQNIQYKTCLKNENCSIMRMNRNRCQQCRFKKCLSVGMSR | -0.234 ± 0.12 |
| CKVCGDVASGFHYGVHACEGCKGFFRRSIQQNIQYKHCLKNENCSIMRMNRNRCQQCRFKKCLSVGMSR | -0.241 ± 0.18 |
| CKVCGDVASGFHYGVHACEGCKGFFRRSIQQNIQYKWCLKNENCSIMRMNRNRCQQCRFKKCLSVGMSR | -0.225 ± 0.17 |
| CKVCGDVASGFHYGVHACEGCKGFFRRSIQQNIQYKACLKNENCSIMRMNRNRCQQCRFKKCLSVGMSR | 0.064 ± 0.081 |
| CKVCGDVASGFHYGVHACEGCKGFFRRSIQQNIQYKDCLKNENCSIMRMNRNRCQQCRFKKCLSVGMSR | 0.255 ± 0.044 |
| CKVCGDVASGFHYGVHACEGCKGFFRRSIQQNIQYKYCLKNENCSIMRMNRNRCQQCRFKKCLSVGMSR | -0.631 ± 0.35 |
| CKVCGDVASGFHYGVHACEGCKGFFRRSIQQNIQYKNCLKNENCSIMRMNRNRCQQCRFKKCLSVGMSR | 0.375 ± 0.11 |
| CKVCGDVASGFHYGVHACEGCKGFFRRSIQQNIQYKLCLKNENCSIMRMNRNRCQQCRFKKCLSVGMSR | -0.473 ± 0.11 |
